Columns and labels:
Raji B cells = assay: Cytokines of Raji and Raji-9 cells treated with LPS (ELISA, CBA); format: cell-based, human
Experimental: FIG. 21 are graphs showing knockdown of LRBA increases the TNFα levels in Raji B (Burkitt's lymphoma) cells. Raji B cells and Raji-9 (stably transfected with shRNA plasmid against LRBA) B cells were treated with LPS (1 μg/ml). The TNFa concentrations were measured by Human TNFα DuoSet ELISA kit (R&D) following the manufacture's instruction. A. Culture supernatant; B. Cell lysate. #=p<0.07, *=p<0.05, **=p<0.005.
FIGS. 48(A)-(I). Knockdown of LRBA influences the levels of cytokines. A. Raji cells (LRBA WT or KD) were seeded in a 24 well plate wells and stimulated with LPS for 15 min (1), 30 min (2) and 1 hr (3) with 0.26 million cells in each well or for 2 h (4), 4 h (5) and 24 h (6) with 0.2 million cells in each well, 0.2 million of cells were plated in each well. ELISA and CBA assays of TNFα and IL-10. Cells were treated as in A. 0.2×10^6 cells, timepoint. 500 uL total volume medium. Duoset ELISA human TNF-a kit protocol was followed for cell culture supernatant. Blues: Raji (♦); Red: Raji9 (▪). Data are representative of 2 to 5 separate experiments.
Cell culture supernatants were directly used to detect human Th1 and Th2 cytokines (IL-2, IL-4, IL-5, IL-6, IL-10, TNFα and IFN-γ) using the human Th1/Th2 cytokine bead-array kit (BD Biosciences, San Jose, Calif.) according to the manufacturer's instructions. The TNF[…] concentrations were also measured by Human TNF[…] DuoSet ELISA kit (R&D, Catalog #DY210).

NF-κB = NF-κB luciferase reporter and phospho-NFκB flow cytometry in Raji cells with LRBA knockdown; format: cell-based, human
Text: FIG. 45A-D. Knockdown of LRBA deregulates NFκB. (A) Knockdown of LRBA increases NFκB luciferase activity. An NFκB luciferase reporter was used to measure the NFκB transcription activity. The data are shown as scatter with bar graph of mean with standard error of mean (SEM). (B) Knockdown of LRBA increases phospho-NFκB. The Phosflow kit including Cytofix Fixation Buffer, Phosflow Perm Buffer III and Stain Buffer (BD) and phospho-antibodies, NFκB p65 (pS529) PE-Cy7 were used for the intracellular staining following the company's instruction. For each samples, 50,000 cells were recorded for the FACS assay. (C) A549 cells were stably transfected with LRBA shRNA knockdown plasmid and several clones were picked up. […]
FIGS. 46(A) and (B). […] NFκB luciferase activity was measured at each time point for both cell lines as in A. RLU: Relative Light Units. […]
NF-κB is the central regulator of the immune system and plays a pivotal role in inflammation and immune responses. […] Raji cells were stimulated with LPS for different times from zero to several hours, and the NF-κB activity was measured by NF-κB luciferase reporter. […]
Ready-To-Glow™ NF-κB Secreted Luciferase Reporter System (Clontech) and Firefly Luciferase Assay Kit (Biotium, Calif., USA) were used following the manufacture's instruction.

B1: LRBA shRNA: shRNA plasmid against LRBA; targeted LRBA sequence SEQ ID No. 15 GGGATATTGTAGAAACTGTCTTT (nucleic acid)
sense: GGGATATTGTAGAAACTGTCTTTTTCAAGAGAAAAGACAGTTTCTACAATATCCCTTTTTT
antisense: CCCTATAACATCTTTGACAGAAAAAGTTCTCTTTTCTGTCAAAGATGTTATAGGGAAAAAA
**Q.** Which results are given for B1?
**A.** TNFα levels in cell culture supernatants and cell lysates (ELISA) (Raji B cells; LPS stimulation for 15 min to 24 h, vs untransfected Raji B cells): significantly increased; secreted levels of IL-10 (CBA) (Raji B cells; Raji cells, LPS): significantly increased; secreted levels of TNFα (CBA) (Raji B cells; Raji cells, LPS): significantly increased; phospho-NFκB (pS529), flow cytometry (NF-κB; Raji cells): increases; average levels of the NF-κB activity (luciferase reporter) (NF-κB; Raji cells stimulated with LPS, zero to several hours): higher
